One block for each molecule: values may come before it. Where no end group is shown, it is not given here. [ ]: non-standard residue; d: D form. pY = N[C@@H](Cc1ccc(OP(=O)(O)O)cc1)C(=O)O
Assays:
[1] = target: CrkL SH2 (residues 1–105) (human) (UniProt P46109); test: ITC
[2] = target: full-length CrkL (residues 1–303) (human) (UniProt P46109); test: ITC
[3] = target: full-length CrkL (residues 1–303) (human, UniProt P46109 1-303); test: NMR titration
[4] = target: CrkL SH3^N (residues 120–188) (human, UniProt P46109 120-188); test: ITC
Chain of CrkL SH3^N (residues 120–188) (P46109 120-188): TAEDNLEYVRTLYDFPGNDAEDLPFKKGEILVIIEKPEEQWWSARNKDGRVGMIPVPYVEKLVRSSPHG

[5] = target: phosphorylated (pTyr207) CrkL (human, UniProt P46109 1-303, phosphotyrosine at 207 (pTyr207)); test: ITC
Chain of phosphorylated (pTyr207) CrkL (P46109 whole entry, the tested form may be a part): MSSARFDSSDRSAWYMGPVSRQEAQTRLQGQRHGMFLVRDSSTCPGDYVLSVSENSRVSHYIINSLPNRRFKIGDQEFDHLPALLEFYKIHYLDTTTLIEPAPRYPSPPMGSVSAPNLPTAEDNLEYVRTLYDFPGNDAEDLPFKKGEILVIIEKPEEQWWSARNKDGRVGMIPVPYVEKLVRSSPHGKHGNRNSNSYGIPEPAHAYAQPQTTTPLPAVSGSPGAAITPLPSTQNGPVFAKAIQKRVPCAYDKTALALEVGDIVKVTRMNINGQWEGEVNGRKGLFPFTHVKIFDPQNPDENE

[6] = target: CrkL SH2 (residues 1–105) (human, UniProt P46109 1-105); test: ITC
Chain of CrkL SH2 (residues 1–105) (P46109 1-105): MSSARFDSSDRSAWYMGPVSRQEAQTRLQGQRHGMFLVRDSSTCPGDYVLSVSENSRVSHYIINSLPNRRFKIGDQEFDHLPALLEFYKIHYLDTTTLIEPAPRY

Chain of CrkL SH2 (residues 1–105) (human) (P46109 1-105): as above
Chain of full-length CrkL (residues 1–303) (human) (P46109 whole entry, the tested form may be a part): as the sequence (P46109 whole entry, the tested form may be a part) above
Chain of full-length CrkL (residues 1–303) (P46109 whole entry, the tested form may be a part): as above

Kd [1]: 7 µM
Kd [2]: 23 µM
Molecule: CrkL-pTyr207-peptide

binding result [3]: binds
binding result [4]: binds
binding result [5]: binds
Molecule: YLQAPELPTKTRTS [PPII-peptide]

binding result [6]: binds
Molecule: AGVSE[pY]ELPEDPR [FGFR-pTyr-peptide]

From paper PMC3423979 (Nature chemical biology, 2012)
